Paper PMC9811624 (The EMBO Journal, 2022)
Read-outs that look alike come from different tables or passages of the source.

B1: MBP-OsCBL7 (natural protein)
chain: MGCISSKQFKRAAEHEDPAILAKETTFSVSEVEALYELFKKISHSIFKDGLIHKEEFQLALFRNSNKKNLFADRIFDLFDLKRNGVIDFGEFVRSLNIFHPETPLAEKIAFAFRLYDLRGTGYIEREELYEMVLAILNESDLLLSDDAVEQIVDQTFKQADLNSDGKIDPDEWKAFASKNPALLKNMTLPYLKDITMAFPSFVLNSGVDDEEL
B2: MBP-OsCBL8 (natural protein)
chain: MGCVSSKQFKRAAQHEDPAILAKETTFSVSEVEALFELFKKISHSIFRDGLIHKEEFQLALFRNSNKKNLFANRIFDLFDLKRNGVIDFGEFVRSLSIFHPETPLGDKIAFAFRLYDLRGTGCIEREELHEMVLALLNESDLFLSEEAVEQIVDQTFKQADLNDDGKIDPDEWKTFASKNPALLKNMTLPYLKDITMVFPSFILNSEVCEEEL

Key:
[1] = target: MBP-OsCRT3 (Oryza sativa (rice)); experiment: SPR
[2] = target: MBP-OsCBL8 (Oryza sativa (rice)) (UniProt Q3HRN9); experiment: SPR
[3] = target: MBP-OsCBL8 (Oryza sativa (rice)) (UniProt Q3HRN9); experiment: SPR; remark: listed apart in the source
[4] = target: MBP-OsCRT3 (Oryza sativa (rice)); experiment: SPR; remark: listed apart in the source
[5] = target: T1, GST-OsCIPK7 (Oryza sativa (rice), UniProt Q75GK4 1-447); experiment: pull-down
T1 sequence: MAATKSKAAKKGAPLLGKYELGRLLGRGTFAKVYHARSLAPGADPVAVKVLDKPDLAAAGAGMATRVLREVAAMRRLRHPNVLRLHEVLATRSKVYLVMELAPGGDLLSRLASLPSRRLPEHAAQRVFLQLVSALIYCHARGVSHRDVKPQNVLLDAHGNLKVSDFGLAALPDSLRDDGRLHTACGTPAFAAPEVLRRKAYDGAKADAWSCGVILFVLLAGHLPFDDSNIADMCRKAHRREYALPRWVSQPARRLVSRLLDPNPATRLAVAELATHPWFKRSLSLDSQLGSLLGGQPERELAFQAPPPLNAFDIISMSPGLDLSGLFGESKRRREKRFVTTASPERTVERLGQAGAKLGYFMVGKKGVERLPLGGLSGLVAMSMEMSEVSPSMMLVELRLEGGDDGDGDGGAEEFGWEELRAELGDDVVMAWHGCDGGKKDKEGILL

Molecule | Kd [1] [nM] | koff [1] [s⁻¹] | kon [1] [M⁻¹ s⁻¹] | Kd [2] [nM] | Kd [3] [nM] | Kd [4] [nM] | koff [4] [s⁻¹] | kon [4] [M⁻¹ s⁻¹] | binding result [5]
GST-OsCIPK7-C (domain or fragment) | 6490 | 0.00157 | 256 | 390 | 340 | 920 | 0.00077 | 684 | –
B1 | – | – | – | – | – | – | – | – | binds
B2 | – | – | – | – | – | – | – | – | binds
